{
  "source": "paper PMC9405206",
  "about": "(Biomedicines, 2022)",
  "binders": {"B1": {"name": "anti-CD47 mAb (B6H12), positive control antibody made in-house (antibody, V domains shown)", "VH": "EVQLVESGGGLVQPGGSLRLSCAASGFTFSGYGMSWVRQAPGKGLEWVATITSGGTYTYYPDSVKGRFTISRDNAKNSLYLQMNSLRAEDTAVYYCARSLAGNAMDYWGQGTLVTVSS", "VL": "EIVLTQSPATLSLSPGERATLSCRASQTISDYLHWYQQKPGQAPRLLIKFASQSISGIPARFSGSGSGTDFTLTISSLEPEDFAVYYCQNGHGFPRTFGQGTKVEIK", "notes": "source: produced in-house from plasmids pUC57/B6H12-Lc and pUC57/B6H12-Hc"}},
  "biological_target": "T1, CD47, biotin-conjugated antigen (Homo sapiens, UniProt Q08722, biotin-conjugated)",
  "T1 construct": "CD47; Probably the extracellular domain (surmise); also called antigen CD47; source: bought: Sino Biological Inc",
  "test": "BLI; ForteBio Octet RED96; streptavidin-coated tips loaded with biotin-conjugated PD-L1 or CD47 (100 nM); antibodies or fusion proteins in solution at 25, 50, 75, 100, 125 and 150 nM; dissociation in PBS; 37 °C; global fit, KD = kd/ka",
  "details": "both partners purified",
  "data": [
    {"binder": "B1", "values": [
      {"measurement": "Kd", "value": 4.08, "unit": "pM"},
      {"measurement": "koff", "value": "3.99e-07", "unit": "s⁻¹"},
      {"measurement": "kon", "value": 97900, "unit": "M⁻¹ s⁻¹"}
    ]}
  ]
}
